Results from publication PMC6144507 (Molecular Pain, 2018).

Molecular target: His-nNOS(1-299) (UniProt P29475-1 1-299)
Experiment: AlphaScreen or HTRF

His-nNOS(1-299), sequence (P29475 1-299): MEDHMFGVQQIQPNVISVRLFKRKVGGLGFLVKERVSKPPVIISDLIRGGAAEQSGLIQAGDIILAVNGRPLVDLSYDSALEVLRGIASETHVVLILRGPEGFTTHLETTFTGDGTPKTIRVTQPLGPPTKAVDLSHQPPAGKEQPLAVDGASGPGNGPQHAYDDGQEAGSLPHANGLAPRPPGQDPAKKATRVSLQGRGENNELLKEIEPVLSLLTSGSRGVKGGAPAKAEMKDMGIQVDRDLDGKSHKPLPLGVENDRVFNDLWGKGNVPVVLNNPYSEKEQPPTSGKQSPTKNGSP

IC50: 4.9 µM
Binder: GRKKRRQRRRYAGQWGESV [L-TAT-GESV]
